{"source": "patent US20140105902A1", "about": "(SAMSUNG ELECTRONICS, published 2014)", "binders": {"B1": {"name": "anti-c-Met antibody L3-1Y (huAbF46-H4-A1 (U6-HC7)) (antibody, V domains shown)", "VH": "EVQLVESGGGLVQPGGSLRLSCAASGFTFTDYYMSWVRQAPGKGLEWLGFIRNKANGYTTEYSASVKGRFTISRDNSKNTLYLQMNSLRAEDTAVYYCARDNWFAYWGQGTLVTVSS", "VL": "DIQMTQSPSSLSASVGDRVTITCKSSQSLLASGNQNNYLAWYQQKPGKAPKMLIIWASTRVSGVPSRFSGSGSGTDFTLTISSLQPEDFATYYCQQSYSRPYTFGQGTKVEIKR"}}, "target": "c-Met, endogenous in human cell lines (NCI-H441, EBC-1, MKN45, HCC827 ER15, HEK293) (human, UniProt P08581 25-1390)", "sequence (P08581 25-1390)": "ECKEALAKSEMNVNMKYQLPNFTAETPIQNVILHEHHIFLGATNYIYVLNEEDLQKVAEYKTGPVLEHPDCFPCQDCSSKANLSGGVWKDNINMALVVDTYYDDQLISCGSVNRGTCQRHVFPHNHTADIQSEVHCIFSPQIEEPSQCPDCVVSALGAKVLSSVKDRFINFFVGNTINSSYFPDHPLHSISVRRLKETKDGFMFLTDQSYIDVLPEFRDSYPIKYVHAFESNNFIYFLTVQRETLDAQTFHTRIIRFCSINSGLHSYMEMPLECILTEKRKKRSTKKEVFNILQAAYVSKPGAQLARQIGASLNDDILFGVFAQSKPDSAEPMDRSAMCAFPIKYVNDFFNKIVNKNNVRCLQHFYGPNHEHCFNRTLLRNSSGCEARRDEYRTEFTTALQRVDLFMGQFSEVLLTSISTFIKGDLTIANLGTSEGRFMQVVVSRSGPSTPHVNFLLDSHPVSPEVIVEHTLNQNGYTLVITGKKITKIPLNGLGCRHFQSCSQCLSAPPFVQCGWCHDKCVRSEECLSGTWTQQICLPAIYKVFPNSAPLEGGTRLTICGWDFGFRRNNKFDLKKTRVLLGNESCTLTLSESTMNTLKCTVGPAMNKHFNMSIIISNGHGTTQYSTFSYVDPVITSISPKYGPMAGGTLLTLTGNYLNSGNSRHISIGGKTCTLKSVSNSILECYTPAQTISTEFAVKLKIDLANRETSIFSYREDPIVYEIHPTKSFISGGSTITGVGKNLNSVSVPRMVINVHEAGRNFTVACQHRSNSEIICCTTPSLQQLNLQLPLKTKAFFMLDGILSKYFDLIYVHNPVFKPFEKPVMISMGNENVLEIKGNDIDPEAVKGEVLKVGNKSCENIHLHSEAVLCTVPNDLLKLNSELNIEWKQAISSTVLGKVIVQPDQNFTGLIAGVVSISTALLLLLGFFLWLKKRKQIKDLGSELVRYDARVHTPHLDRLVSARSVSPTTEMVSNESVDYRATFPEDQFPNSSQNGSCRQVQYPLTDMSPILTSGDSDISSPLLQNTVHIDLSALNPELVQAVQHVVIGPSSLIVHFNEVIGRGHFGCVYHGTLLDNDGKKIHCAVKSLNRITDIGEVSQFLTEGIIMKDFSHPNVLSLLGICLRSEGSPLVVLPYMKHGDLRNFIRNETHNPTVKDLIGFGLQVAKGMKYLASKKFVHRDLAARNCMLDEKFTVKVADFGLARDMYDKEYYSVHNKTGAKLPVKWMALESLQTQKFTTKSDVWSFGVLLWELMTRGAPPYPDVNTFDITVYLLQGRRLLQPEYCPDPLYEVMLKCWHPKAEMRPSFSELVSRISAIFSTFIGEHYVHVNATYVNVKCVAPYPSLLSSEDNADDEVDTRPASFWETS", "experiment": "cell-based or functional assay", "data": [{"binder": "B1", "values": [{"measurement": "total c-Met level by ELISA, Cbl siRNA-transformed EBC-1 cells, 5 ug/ml, 24 h, relative to control IgG", "result": "~30", "unit": "%"}]}]}
